From patent publication USRE46170E1, “Insulin derivatives” (Novo Nordisk A/S, priority 2005, dated 2016)

How the values were obtained:
[1] = Hydrophobicity (hydrophobic index) relative to human insulin by isocratic RP-HPLC; format: physicochemical; conditions: LiChrosorb RP18 column, isocratic elution at 40° C., sodium phosphate buffer pH 7.3/acetonitrile
Protocol: The elution was monitored by following the UV absorption of the eluate at 214 nm. Void time, t0, was found by injecting 0.1 mM sodium nitrate.

human insulin receptor = human insulin receptor (Homo sapiens, UniProt P06213); test: Insulin receptor binding, SPA microtiterplate antibody capture assay; conditions: purified recombinant human insulin receptor - exon 11; A14 Tyr[125I]-human insulin tracer; 16 hours incubation
Chain of human insulin receptor (P06213 28-746 isoform P06213-2 limits assumed): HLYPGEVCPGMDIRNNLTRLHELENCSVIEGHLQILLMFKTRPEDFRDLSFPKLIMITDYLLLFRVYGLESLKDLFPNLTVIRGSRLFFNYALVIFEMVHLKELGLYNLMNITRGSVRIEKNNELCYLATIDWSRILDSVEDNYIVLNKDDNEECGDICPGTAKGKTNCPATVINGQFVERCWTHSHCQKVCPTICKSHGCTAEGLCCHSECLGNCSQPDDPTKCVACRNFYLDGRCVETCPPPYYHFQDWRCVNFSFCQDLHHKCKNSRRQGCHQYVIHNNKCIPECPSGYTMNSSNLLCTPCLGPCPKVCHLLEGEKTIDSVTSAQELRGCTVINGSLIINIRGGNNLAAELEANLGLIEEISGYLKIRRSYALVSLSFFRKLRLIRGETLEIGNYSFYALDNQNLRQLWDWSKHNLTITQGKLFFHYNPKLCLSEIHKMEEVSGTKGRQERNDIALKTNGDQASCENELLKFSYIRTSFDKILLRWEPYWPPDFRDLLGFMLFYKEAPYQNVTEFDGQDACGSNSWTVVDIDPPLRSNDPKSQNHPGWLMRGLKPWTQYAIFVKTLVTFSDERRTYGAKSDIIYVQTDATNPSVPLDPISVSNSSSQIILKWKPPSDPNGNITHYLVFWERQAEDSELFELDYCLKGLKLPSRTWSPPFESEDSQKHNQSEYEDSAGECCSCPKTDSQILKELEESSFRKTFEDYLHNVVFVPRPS
Chain of human insulin receptor (P06213 763-1382 partner limits assumed): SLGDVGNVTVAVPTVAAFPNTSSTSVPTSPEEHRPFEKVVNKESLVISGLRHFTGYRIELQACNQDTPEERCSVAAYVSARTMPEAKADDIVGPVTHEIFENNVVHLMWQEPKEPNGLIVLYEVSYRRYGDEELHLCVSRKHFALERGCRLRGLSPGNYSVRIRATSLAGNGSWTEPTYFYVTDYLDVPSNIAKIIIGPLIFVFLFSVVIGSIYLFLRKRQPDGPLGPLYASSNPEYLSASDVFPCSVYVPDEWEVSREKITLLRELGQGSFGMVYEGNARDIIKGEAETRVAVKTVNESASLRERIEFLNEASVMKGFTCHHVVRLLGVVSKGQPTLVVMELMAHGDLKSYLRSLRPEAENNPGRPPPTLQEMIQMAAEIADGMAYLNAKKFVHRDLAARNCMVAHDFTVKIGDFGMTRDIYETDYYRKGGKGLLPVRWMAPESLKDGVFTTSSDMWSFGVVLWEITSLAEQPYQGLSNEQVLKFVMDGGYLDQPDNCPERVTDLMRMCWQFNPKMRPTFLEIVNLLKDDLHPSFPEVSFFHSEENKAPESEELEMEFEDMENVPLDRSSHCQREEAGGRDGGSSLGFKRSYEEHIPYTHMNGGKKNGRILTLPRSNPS
Protocol: SPA-PVT antibody-binding beads, anti-mouse reagent (Amersham Biosciences, Cat No. PRNQ0017) were mixed with 25 ml of binding buffer (100 mM HEPES pH 7.8; 100 mM sodium chloride, 10 mM MgSO4, 0.025% Tween-20). […] A total of 100 μl was then added and a dilution series is made from appropriate samples. To the dilution series was then added 100 μl of reagent mix and the samples were incubated for 16 hours while gently shaken. The phases were the then separated by centrifugation for 1 min and the plates counted in a Topcounter. The binding data were fitted using the nonlinear regression algorithm in the GraphPad Prism 2.01 (GraphPad Software, San Diego, Calif.).

| Substance | k′rel [1] | Receptor binding (% of human insulin) (human insulin receptor) |
| --- | --- | --- |
| N^εB29-4-{[(2-Carboxyethyl)-(15-carboxypentadecanoyl)amino]methyl}benzoyl)-γ-L-glutamyl desB30 human insulin [Example 20] | 0.399 | – |
| N^εB29-10-(4-Carboxyphenoxy)decanoyl beta-Asp desB30 insulin [Example 25] | 0.348 | 42 % of human insulin |
| N^εB29-10-(4-carboxyphenylsulfanyl)decanoyl-γ-L-glutamyl desB30 human insulin [Example 23] | 0.475 | 101 % of human insulin |
| N^εB29-11-(4-Carboxy-phenoxy) undecanoyl γ-L-glutamyl desB30 insulin [Example 26] | 0.482 | 55 % of human insulin |
| N^εB29-(3-Carboxy-4-(14-carboxytetradecyloxy)benzoyl) desB30 human insulin [Example 12] | 1.51 | – |
| N^εB29-(3-Carboxy-5-(14-carboxytetradecyloxy)benzoyl) desB30 human insulin [Example 13] | 1.175 | – |
| N^εB29-(3-Carboxy-5-hexadecandioylaminobenzoyl) des(B30)insulin [Example 9] | 1.7 | 12 % of human insulin |
| N^εB29-(3-Carboxy-5-octadecandioylaminobenzoyl) des(B30) human insulin [Example 10] | 2.97 | 19 % of human insulin |
| N^εB29-(3-carboxy-4-hexdecandioylaminobenzoyl) desB30 human insulin [Example 22] | 1.075 | – |
| N^εB29-[3-Carboxy-5-(octadecandioyl-N-carboxyethylglycin)aminobenzoyl] desB30 human insulin [Example 15] | 0.662 | – |
| N^εB29-[(5-{[(2-Carboxyethyl)-(15-carboxypentadecanoyl)amino]methyl}furan-2-carbonyl)desB30 human insulin [Example 5] | 1.19 | 13 % of human insulin |
| N^εB29-{4-Carboxy-4-[10-(4-carboxy-phenoxy)-decanoylamino]-butyryl}desB30 human insulin [Example 14] | 0.388 | 46 % of human insulin |
| N^εB29-{4-[2-(4-carboxymethylphenyl)ethyl]phenyl}acetyl-γ-L-glutamyl desB30 human insulin [Example 21] | 0.291 | – |
| N^εB29-ω-carboxypentadecanoyl-(4-aminomethylbenzoyl)-γ-L-glutamyl desB30 human insulin [Example 18] | 1.18 | – |
| N^εB29-ω-carboxypentadecanoyl-γ-L-glutamyl 4-aminomethyl-benzoyl) desB30 human insulin [Example 11] | 1.12 | 14 % of human insulin |
| N^εB29{3-[(3,5-Bis-carboxymethoxy-benzyl)-(15-carboxypentadecanoyl)amino]-propionyl desB30 human insulin [Example 16] | 0.45 | – |
| N^εB29—N—(HOOC(CH2)15CO)—N-(carboxyethyl)-CH2-para-C6H4CO] desB30 human insulin [Example 4] | 1.23 | – |
| N^εB29—N—(HOOC(CH2)16CO)—N(carboxyethyl)-CH2-para-C6H4CO] desB30 human insulin [Example 3] | 2.03 | 15 % of human insulin |
| N^εB29—[N—(HOOC(CH2)13CO)—N-(carboxyethyl)-CH2-para-C6H4CO] desB30 human insulin [Example 2] | 0.81 | 28 % of human insulin |
| N^εB29—[N—(HOOC(CH2)14CO)—N-(carboxyethyl)-para-C6H4CO] desB30 human insulin [Example 8] | 1.08 | 17 % of human insulin |
| N^εB29—[N—HOOC(CH2)14CO)—N-(carboxethyl)-CH2-ortho C6H4CO] desB30 human insulin [Example 7] | 0.905 | 11 % of human insulin |
| N^εB29—[N—HOOC(CH2)14CO)—N-(carboxyethyl)-CH2-para-C6H4CO] desB30 human insulin [Example 1] | – | 18 % of human insulin |
